Reference: publication PMC3785576

Target: Bovine dermal collagen type I (bovine) (UniProt P02453)
Assay: ELISA

Sequence of UniProt P02453 (P02453 162-1217, chain 1 of 2): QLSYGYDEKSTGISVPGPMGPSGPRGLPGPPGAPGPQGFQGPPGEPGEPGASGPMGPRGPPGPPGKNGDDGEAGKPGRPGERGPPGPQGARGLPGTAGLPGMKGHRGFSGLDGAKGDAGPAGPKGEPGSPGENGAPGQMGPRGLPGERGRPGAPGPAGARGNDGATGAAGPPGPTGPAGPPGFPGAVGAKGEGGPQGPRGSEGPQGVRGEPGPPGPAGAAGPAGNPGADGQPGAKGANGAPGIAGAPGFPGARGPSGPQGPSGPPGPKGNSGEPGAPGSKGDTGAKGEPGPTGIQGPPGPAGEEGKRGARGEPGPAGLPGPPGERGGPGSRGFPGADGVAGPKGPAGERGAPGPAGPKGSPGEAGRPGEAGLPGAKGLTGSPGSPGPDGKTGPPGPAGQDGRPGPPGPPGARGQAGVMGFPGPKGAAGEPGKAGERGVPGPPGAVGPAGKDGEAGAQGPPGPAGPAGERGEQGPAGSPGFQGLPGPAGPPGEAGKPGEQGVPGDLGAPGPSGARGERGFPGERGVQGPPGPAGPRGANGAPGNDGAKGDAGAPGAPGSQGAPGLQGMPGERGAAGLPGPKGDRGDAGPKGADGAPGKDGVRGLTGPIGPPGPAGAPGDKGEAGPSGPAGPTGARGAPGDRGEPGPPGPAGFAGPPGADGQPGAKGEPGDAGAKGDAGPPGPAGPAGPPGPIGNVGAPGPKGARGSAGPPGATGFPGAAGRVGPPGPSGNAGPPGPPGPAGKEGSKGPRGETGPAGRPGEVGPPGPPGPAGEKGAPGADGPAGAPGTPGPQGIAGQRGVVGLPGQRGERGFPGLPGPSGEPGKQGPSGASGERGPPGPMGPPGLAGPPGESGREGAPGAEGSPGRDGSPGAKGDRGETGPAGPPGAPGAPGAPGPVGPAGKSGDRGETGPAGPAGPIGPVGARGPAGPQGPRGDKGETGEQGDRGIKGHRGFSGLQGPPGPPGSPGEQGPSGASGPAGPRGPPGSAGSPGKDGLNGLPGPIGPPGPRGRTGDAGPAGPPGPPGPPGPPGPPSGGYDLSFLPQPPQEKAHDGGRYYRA
Sequence of UniProt P02453 (P02465 80-1117, chain 2 of 2, further chain): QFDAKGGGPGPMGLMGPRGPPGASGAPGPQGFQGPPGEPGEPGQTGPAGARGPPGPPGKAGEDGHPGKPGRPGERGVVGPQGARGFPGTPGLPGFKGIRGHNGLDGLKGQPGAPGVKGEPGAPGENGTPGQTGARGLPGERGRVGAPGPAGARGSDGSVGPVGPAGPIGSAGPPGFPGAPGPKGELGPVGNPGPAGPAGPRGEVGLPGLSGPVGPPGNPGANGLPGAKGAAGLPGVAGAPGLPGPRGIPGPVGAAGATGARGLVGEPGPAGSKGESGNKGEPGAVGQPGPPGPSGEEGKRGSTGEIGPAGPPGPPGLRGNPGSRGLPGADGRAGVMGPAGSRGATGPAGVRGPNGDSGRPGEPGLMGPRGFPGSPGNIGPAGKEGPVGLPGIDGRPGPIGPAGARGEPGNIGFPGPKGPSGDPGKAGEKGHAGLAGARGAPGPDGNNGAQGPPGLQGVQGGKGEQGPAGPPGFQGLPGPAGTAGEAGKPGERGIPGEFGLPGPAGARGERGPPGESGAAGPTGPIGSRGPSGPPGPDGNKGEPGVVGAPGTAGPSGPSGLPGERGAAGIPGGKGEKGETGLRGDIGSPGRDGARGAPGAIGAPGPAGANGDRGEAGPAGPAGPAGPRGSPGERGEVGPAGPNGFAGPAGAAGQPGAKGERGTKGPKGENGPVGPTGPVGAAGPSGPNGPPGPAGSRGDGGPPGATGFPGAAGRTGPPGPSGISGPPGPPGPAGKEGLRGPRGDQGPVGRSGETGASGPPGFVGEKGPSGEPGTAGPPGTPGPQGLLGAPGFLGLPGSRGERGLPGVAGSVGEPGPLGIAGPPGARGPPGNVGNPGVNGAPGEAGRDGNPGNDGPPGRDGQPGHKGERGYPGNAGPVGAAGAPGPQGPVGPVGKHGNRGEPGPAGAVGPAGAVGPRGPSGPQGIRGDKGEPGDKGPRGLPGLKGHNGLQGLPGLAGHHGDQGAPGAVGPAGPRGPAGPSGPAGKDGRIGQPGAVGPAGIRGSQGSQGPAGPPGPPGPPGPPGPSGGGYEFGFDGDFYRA

Substance	IC50 [nM]
Antibody (anti-Fc) induced oligomers of DDR1-Fc (from UniProt Q08345 21-417) (complex)	2.5
Fc-tagged extracellular domain of human DDR1 (dimeric DDR1-Fc) (from UniProt Q08345 21-417) (Fc fusion)	7.85
